These sequences were tested on Escherichia coli TOP10 (assay: shrunken log2 fold change of peptide-encoding DNA abundance (4.5 h post-induction vs induction); higher = less antimicrobial activity (less host growth inhibition)). Conditions: time post-induction: 4.5 h; library: site-saturation at positions 5, 18, 19, 20.
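Further: peptides expressed intracellularly from a pBAD plasmid library in pooled LB shake-flask culture, induced with 0.3% L-arabinose, DNA abundance read by NGS, three biological replicates, DESeq2 with apeglm shrinkage.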

Row | Sequence | shrunken log2 fold change
1 | RRIRHRPPRLPRPRPRPYVNPRP | -0.0772
2 | RRIRHRPPRLPRPRPRPYWIPRP | -0.124
3 | RRIRHRPPRLPRPRPRPYWWPRP | -0.196
4 | RRIRIRPPRLPRPRPRPACNPRP | -0.363
5 | RRIRIRPPRLPRPRPRPADGPRP | 0.276
6 | RRIRIRPPRLPRPRPRPAEHPRP | 0.0405
7 | RRIRIRPPRLPRPRPRPAEQPRP | -0.0532
8 | RRIRIRPPRLPRPRPRPAFNPRP | -0.0935
9 | RRIRIRPPRLPRPRPRPAGDPRP | 0.0386
10 | RRIRIRPPRLPRPRPRPAGLPRP | -0.0628
11 | RRIRIRPPRLPRPRPRPAHCPRP | 0.0837
12 | RRIRIRPPRLPRPRPRPAHNPRP | -0.271
13 | RRIRIRPPRLPRPRPRPAIDPRP | -0.239
14 | RRIRIRPPRLPRPRPRPAIIPRP | -1.09
15 | RRIRIRPPRLPRPRPRPAKSPRP | -0.0109
16 | RRIRIRPPRLPRPRPRPAMMPRP | -0.105
17 | RRIRIRPPRLPRPRPRPAMNPRP | -0.495
18 | RRIRIRPPRLPRPRPRPAMQPRP | 0.0843
19 | RRIRIRPPRLPRPRPRPANMPRP | -0.45
20 | RRIRIRPPRLPRPRPRPARRPRP | 0.72
21 | RRIRIRPPRLPRPRPRPASGPRP | 0.0837
22 | RRIRIRPPRLPRPRPRPATDPRP | -0.161
23 | RRIRIRPPRLPRPRPRPATPPRP | 0.0979
24 | RRIRIRPPRLPRPRPRPAWHPRP | 0.031
25 | RRIRIRPPRLPRPRPRPCAHPRP | 0.0482

Row | Sequence | shrunken log2 fold change
26 | RRIRIRPPRLPRPRPRPCANPRP | -0.234
27 | RRIRIRPPRLPRPRPRPCCKPRP | -0.398
28 | RRIRIRPPRLPRPRPRPCCMPRP | -0.614
29 | RRIRIRPPRLPRPRPRPCDCPRP | -0.0657
30 | RRIRIRPPRLPRPRPRPCEDPRP | -0.424
31 | RRIRIRPPRLPRPRPRPCERPRP | -0.0509
32 | RRIRIRPPRLPRPRPRPCFLPRP | -0.544
33 | RRIRIRPPRLPRPRPRPCFRPRP | -0.233
34 | RRIRIRPPRLPRPRPRPCGMPRP | 0.0729
35 | RRIRIRPPRLPRPRPRPCGNPRP | 0.00902
36 | RRIRIRPPRLPRPRPRPCGQPRP | -0.279
37 | RRIRIRPPRLPRPRPRPCHGPRP | -0.545
38 | RRIRIRPPRLPRPRPRPCIQPRP | -0.185
39 | RRIRIRPPRLPRPRPRPCKEPRP | 1.82
40 | RRIRIRPPRLPRPRPRPCKSPRP | -0.133
41 | RRIRIRPPRLPRPRPRPCMNPRP | -0.307
42 | RRIRIRPPRLPRPRPRPCNQPRP | -0.297
43 | RRIRIRPPRLPRPRPRPCNWPRP | -0.135
44 | RRIRIRPPRLPRPRPRPCRDPRP | -0.132
45 | RRIRIRPPRLPRPRPRPCVCPRP | -0.0463
46 | RRIRIRPPRLPRPRPRPCWGPRP | 0.162
47 | RRIRIRPPRLPRPRPRPCWNPRP | -0.301
48 | RRIRIRPPRLPRPRPRPCYDPRP | -0.014
49 | RRIRIRPPRLPRPRPRPDAWPRP | 0.32
50 | RRIRIRPPRLPRPRPRPDCPPRP | 0.132

Row | Sequence | shrunken log2 fold change
51 | RRIRIRPPRLPRPRPRPDDIPRP | -0.151
52 | RRIRIRPPRLPRPRPRPDDVPRP | -0.00433
53 | RRIRIRPPRLPRPRPRPDDYPRP | 0.07
54 | RRIRIRPPRLPRPRPRPDERPRP | -0.0172
55 | RRIRIRPPRLPRPRPRPDFFPRP | -0.415
56 | RRIRIRPPRLPRPRPRPDFYPRP | -0.554
57 | RRIRIRPPRLPRPRPRPDGHPRP | -0.153
58 | RRIRIRPPRLPRPRPRPDGLPRP | 0.0731
59 | RRIRIRPPRLPRPRPRPDGTPRP | -0.303
60 | RRIRIRPPRLPRPRPRPDHFPRP | -0.0602
61 | RRIRIRPPRLPRPRPRPDHPPRP | -0.266
62 | RRIRIRPPRLPRPRPRPDIDPRP | -0.151
63 | RRIRIRPPRLPRPRPRPDILPRP | -0.354
64 | RRIRIRPPRLPRPRPRPDKNPRP | -0.673
65 | RRIRIRPPRLPRPRPRPDKVPRP | -0.043
66 | RRIRIRPPRLPRPRPRPDKYPRP | -0.189
67 | RRIRIRPPRLPRPRPRPDLEPRP | -0.0323
68 | RRIRIRPPRLPRPRPRPDLPPRP | -0.334
69 | RRIRIRPPRLPRPRPRPDMPPRP | -0.109
70 | RRIRIRPPRLPRPRPRPDNSPRP | -1.35
71 | RRIRIRPPRLPRPRPRPDPFPRP | 0.261
72 | RRIRIRPPRLPRPRPRPDPLPRP | -0.326
73 | RRIRIRPPRLPRPRPRPDQFPRP | -0.321
74 | RRIRIRPPRLPRPRPRPDQVPRP | -0.117
75 | RRIRIRPPRLPRPRPRPDRCPRP | -0.163

Row | Sequence | shrunken log2 fold change
76 | RRIRIRPPRLPRPRPRPDREPRP | 0.00825
77 | RRIRIRPPRLPRPRPRPDRNPRP | -0.913
78 | RRIRIRPPRLPRPRPRPDSEPRP | 0.0636
79 | RRIRIRPPRLPRPRPRPDVAPRP | -0.206
80 | RRIRIRPPRLPRPRPRPDVMPRP | -0.17
81 | RRIRIRPPRLPRPRPRPDWCPRP | -0.149
82 | RRIRIRPPRLPRPRPRPDWGPRP | -0.0242
83 | RRIRIRPPRLPRPRPRPDWIPRP | -1.16
84 | RRIRIRPPRLPRPRPRPDYCPRP | -0.163
85 | RRIRIRPPRLPRPRPRPECEPRP | -0.0311
86 | RRIRIRPPRLPRPRPRPECQPRP | -0.00158
87 | RRIRIRPPRLPRPRPRPEDIPRP | -0.407
88 | RRIRIRPPRLPRPRPRPEDQPRP | -0.000348
89 | RRIRIRPPRLPRPRPRPEDRPRP | -0.0106
90 | RRIRIRPPRLPRPRPRPEEAPRP | 0.215
91 | RRIRIRPPRLPRPRPRPEECPRP | 0.0287
92 | RRIRIRPPRLPRPRPRPEEYPRP | -0.0228
93 | RRIRIRPPRLPRPRPRPEFAPRP | 0.452
94 | RRIRIRPPRLPRPRPRPEGHPRP | -0.00139
95 | RRIRIRPPRLPRPRPRPEGTPRP | 0.0536
96 | RRIRIRPPRLPRPRPRPEITPRP | -0.461
97 | RRIRIRPPRLPRPRPRPELTPRP | -0.0457
98 | RRIRIRPPRLPRPRPRPENSPRP | 0.0169
99 | RRIRIRPPRLPRPRPRPEPFPRP | 0.126
100 | RRIRIRPPRLPRPRPRPEQAPRP | 0.1

Row | Sequence | shrunken log2 fold change
101 | RRIRIRPPRLPRPRPRPEQEPRP | 0.0276
102 | RRIRIRPPRLPRPRPRPEQWPRP | -0.0237
103 | RRIRIRPPRLPRPRPRPERAPRP | 0.761
104 | RRIRIRPPRLPRPRPRPERQPRP | 0.0212
105 | RRIRIRPPRLPRPRPRPERRPRP | 0.264
106 | RRIRIRPPRLPRPRPRPERSPRP | -0.164
107 | RRIRIRPPRLPRPRPRPESKPRP | -0.208
108 | RRIRIRPPRLPRPRPRPESLPRP | -0.23
109 | RRIRIRPPRLPRPRPRPESYPRP | 0.0064
110 | RRIRIRPPRLPRPRPRPETHPRP | -0.413
111 | RRIRIRPPRLPRPRPRPETYPRP | -0.263
112 | RRIRIRPPRLPRPRPRPEVYPRP | -0.0738
113 | RRIRIRPPRLPRPRPRPEYSPRP | -0.119
114 | RRIRIRPPRLPRPRPRPEYTPRP | 0.0624
115 | RRIRIRPPRLPRPRPRPFAKPRP | -0.295
116 | RRIRIRPPRLPRPRPRPFANPRP | -0.0225
117 | RRIRIRPPRLPRPRPRPFARPRP | -0.0891
118 | RRIRIRPPRLPRPRPRPFCRPRP | 0.087
119 | RRIRIRPPRLPRPRPRPFECPRP | -0.0837
120 | RRIRIRPPRLPRPRPRPFENPRP | -0.00783
121 | RRIRIRPPRLPRPRPRPFFQPRP | -0.412
122 | RRIRIRPPRLPRPRPRPFGHPRP | -0.272
123 | RRIRIRPPRLPRPRPRPFGNPRP | -0.118
124 | RRIRIRPPRLPRPRPRPFGQPRP | -0.259
125 | RRIRIRPPRLPRPRPRPFHHPRP | 0.0886

Row | Sequence | shrunken log2 fold change
126 | RRIRIRPPRLPRPRPRPFIYPRP | -0.899
127 | RRIRIRPPRLPRPRPRPFKFPRP | -0.702
128 | RRIRIRPPRLPRPRPRPFLSPRP | -0.282
129 | RRIRIRPPRLPRPRPRPFLWPRP | -0.0429
130 | RRIRIRPPRLPRPRPRPFMAPRP | -0.397
131 | RRIRIRPPRLPRPRPRPFMNPRP | -0.16
132 | RRIRIRPPRLPRPRPRPFMQPRP | -0.91
133 | RRIRIRPPRLPRPRPRPFNEPRP | -0.331
134 | RRIRIRPPRLPRPRPRPFPQPRP | -0.549
135 | RRIRIRPPRLPRPRPRPFPYPRP | -0.288
136 | RRIRIRPPRLPRPRPRPFQAPRP | -0.0938
137 | RRIRIRPPRLPRPRPRPFTGPRP | -1.27
138 | RRIRIRPPRLPRPRPRPFVEPRP | -0.37
139 | RRIRIRPPRLPRPRPRPFVPPRP | -0.722
140 | RRIRIRPPRLPRPRPRPFWLPRP | 0.183
141 | RRIRIRPPRLPRPRPRPFWRPRP | -0.00848
142 | RRIRIRPPRLPRPRPRPFYRPRP | -0.194
143 | RRIRIRPPRLPRPRPRPFYWPRP | -0.12
144 | RRIRIRPPRLPRPRPRPGCAPRP | 0.185
145 | RRIRIRPPRLPRPRPRPGCYPRP | -0.715
146 | RRIRIRPPRLPRPRPRPGDQPRP | -0.0693
147 | RRIRIRPPRLPRPRPRPGDRPRP | -0.123
148 | RRIRIRPPRLPRPRPRPGEFPRP | -0.0994
149 | RRIRIRPPRLPRPRPRPGEYPRP | -0.161
150 | RRIRIRPPRLPRPRPRPGFNPRP | -0.135
